# Results as given in publication PMC8611336.
# Tests used:
# [1] = molecular target: SUVs of PM lipid composition; assay: microscale thermophoresis (MST); details: value read at the highest lipid concentration, about 1600 µM; n = 3; parent: est. 105; read off a plot
# [2] = molecular target: SUVs of NE lipid composition; assay: microscale thermophoresis (MST); details: value read at the highest lipid concentration, about 1600 µM; n = 3; parent: est. 88; read off a plot
substance,measurement,setting,value
"AαH peptide (Apq12 58-68, …) L58D; F61R; I62N; F68N",response,[1],35%
same,response,[2],50%
